These sequences were tested against Fyn (UniProt P06241) (assay: phosphorylation enrichment, bacterial display (enrichment ratio); higher = better substrate or ligand; peptides without Tyr show the background).
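Further: 11-residue human phosphosite peptides and single-mutation variants displayed on the E. coli surface, counted by deep sequencing, each peptide's frequency after selection divided by its frequency in the unselected input library; frequency after pTyr selection over input frequency; kinase dosed for 20-30% of maximal phosphorylation in three min.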

Fyn, sequence (P06241 whole entry, looked up): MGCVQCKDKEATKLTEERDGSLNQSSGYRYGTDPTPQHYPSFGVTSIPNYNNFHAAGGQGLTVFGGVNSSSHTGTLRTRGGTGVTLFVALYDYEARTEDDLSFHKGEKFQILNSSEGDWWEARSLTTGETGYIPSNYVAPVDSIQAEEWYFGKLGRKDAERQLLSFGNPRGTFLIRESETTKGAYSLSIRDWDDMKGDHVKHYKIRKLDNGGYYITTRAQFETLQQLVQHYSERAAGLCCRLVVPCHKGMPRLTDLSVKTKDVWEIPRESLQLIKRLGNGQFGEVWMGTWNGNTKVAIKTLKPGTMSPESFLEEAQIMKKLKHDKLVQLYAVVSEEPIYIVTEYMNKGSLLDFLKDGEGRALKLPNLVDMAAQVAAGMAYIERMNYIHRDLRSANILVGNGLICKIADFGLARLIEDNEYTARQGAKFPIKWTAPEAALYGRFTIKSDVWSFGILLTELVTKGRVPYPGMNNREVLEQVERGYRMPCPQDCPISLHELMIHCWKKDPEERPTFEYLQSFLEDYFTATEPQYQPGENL

Going from LPPGTYPSDFA [UNC5B_Y511] to YCGYSYDDIPD [TMEM230_Y112_R108C], the phosphorylation enrichment rises from 0.451 to 0.932.

First: EAMSDYKKQLR [SPATA18_Y229]
Second: TVEDHYYEGGI [TKT_Y563]
The phosphorylation enrichment of the first is lower: 0.316 for the first, 0.589 for the second.

First: TQRPHYKGGGG [TYROBP_Y112_Y111H]
Second: TNFRFYLRSLE [MTM1_Y71_L70F_YF]
The phosphorylation enrichment of the first is higher: 0.496 for the first, 0.397 for the second.

Going from RSIGEYDVLRA [PRKDC_Y2936_G2941A] to YEEDPYLVVNP [MCM6_Y810], the phosphorylation enrichment rises from 1.06 to 1.99.

Compared with KLFYIYTPGTT [SLC27A4_Y245_S247P], AHAGEYGADAL [HBA1_Y25_E28D] is higher in phosphorylation enrichment: 0.404 for the first, 0.414 for the second.

Going from SVVEPYEPPEV [TP53_Y220_V218E] to SFCFRYRCAAW [SUMF1_Y344_R349W_YF], the phosphorylation enrichment falls from 0.741 to 0.41.

Going from AVEDQYFRVDC [FHL1_Y207_C209R_YF] to TEQDPYNNIVC [MMUT_Y364_R369C], the phosphorylation enrichment rises from 0.552 to 0.555.

Compared with SPLEVYVDKSQ [FLNA_Y373_F370L], FGDTSYIPFRD [CDC14C_Y132_P131S] is lower in phosphorylation enrichment: 0.469 for the first, 0.443 for the second.

Each sequence was assayed against MERTK (UniProt Q12866) in the same assay as above.
MERTK, sequence (Q12866 whole entry, looked up): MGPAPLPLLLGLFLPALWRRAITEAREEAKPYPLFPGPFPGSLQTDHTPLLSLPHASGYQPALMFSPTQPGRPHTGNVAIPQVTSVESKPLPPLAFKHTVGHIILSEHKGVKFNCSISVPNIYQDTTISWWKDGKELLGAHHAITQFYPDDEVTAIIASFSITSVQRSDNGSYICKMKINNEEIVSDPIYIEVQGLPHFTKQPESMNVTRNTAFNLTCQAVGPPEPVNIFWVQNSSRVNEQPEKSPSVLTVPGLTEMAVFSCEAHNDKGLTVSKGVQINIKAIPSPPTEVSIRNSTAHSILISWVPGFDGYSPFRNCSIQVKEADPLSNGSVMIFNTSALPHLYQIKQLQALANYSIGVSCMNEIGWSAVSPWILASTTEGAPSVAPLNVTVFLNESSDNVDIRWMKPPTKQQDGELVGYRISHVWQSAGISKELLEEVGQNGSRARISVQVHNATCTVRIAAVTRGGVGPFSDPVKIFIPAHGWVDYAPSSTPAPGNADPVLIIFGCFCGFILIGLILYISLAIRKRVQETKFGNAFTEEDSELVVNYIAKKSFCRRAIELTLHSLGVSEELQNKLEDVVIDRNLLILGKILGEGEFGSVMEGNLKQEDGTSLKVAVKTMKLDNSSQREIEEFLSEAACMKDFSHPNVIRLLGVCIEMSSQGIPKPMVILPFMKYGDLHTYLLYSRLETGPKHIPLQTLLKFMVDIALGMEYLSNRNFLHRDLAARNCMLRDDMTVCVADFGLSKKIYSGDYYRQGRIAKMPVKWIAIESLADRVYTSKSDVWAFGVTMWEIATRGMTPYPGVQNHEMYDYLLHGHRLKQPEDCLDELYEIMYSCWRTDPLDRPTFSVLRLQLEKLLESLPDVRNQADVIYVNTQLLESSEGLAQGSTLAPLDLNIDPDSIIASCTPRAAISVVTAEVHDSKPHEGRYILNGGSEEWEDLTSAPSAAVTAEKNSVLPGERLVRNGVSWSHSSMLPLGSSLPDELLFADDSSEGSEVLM

First: LPPGTYPSDFA [UNC5B_Y511]
Second: YCGYSYDDIPD [TMEM230_Y112_R108C]
The phosphorylation enrichment of the first is lower: 0.424 for the first, 1.03 for the second.

First: EAMSDYKKQLR [SPATA18_Y229]
Second: TVEDHYYEGGI [TKT_Y563]
The phosphorylation enrichment of the first is lower: 0.393 for the first, 0.574 for the second.

First: TQRPHYKGGGG [TYROBP_Y112_Y111H]
Second: TNFRFYLRSLE [MTM1_Y71_L70F_YF]
The phosphorylation enrichment of the first is higher: 0.433 for the first, 0.381 for the second.

First: RSIGEYDVLRA [PRKDC_Y2936_G2941A]
Second: YEEDPYLVVNP [MCM6_Y810]
The phosphorylation enrichment of the first is higher: 0.817 for the first, 0.605 for the second.

Compared with KLFYIYTPGTT [SLC27A4_Y245_S247P], AHAGEYGADAL [HBA1_Y25_E28D] is lower in phosphorylation enrichment: 1.66 for the first, 0.373 for the second.

First: SVVEPYEPPEV [TP53_Y220_V218E]
Second: SFCFRYRCAAW [SUMF1_Y344_R349W_YF]
The phosphorylation enrichment of the first is lower: 0.442 for the first, 0.449 for the second.

Going from AVEDQYFRVDC [FHL1_Y207_C209R_YF] to TEQDPYNNIVC [MMUT_Y364_R369C], the phosphorylation enrichment rises from 0.499 to 0.528.

Going from SPLEVYVDKSQ [FLNA_Y373_F370L] to FGDTSYIPFRD [CDC14C_Y132_P131S], the phosphorylation enrichment falls from 0.47 to 0.452.

These sequences were tested against EPHB1 (UniProt P54762) in the same assay as above.
EPHB1, sequence (P54762 whole entry, looked up): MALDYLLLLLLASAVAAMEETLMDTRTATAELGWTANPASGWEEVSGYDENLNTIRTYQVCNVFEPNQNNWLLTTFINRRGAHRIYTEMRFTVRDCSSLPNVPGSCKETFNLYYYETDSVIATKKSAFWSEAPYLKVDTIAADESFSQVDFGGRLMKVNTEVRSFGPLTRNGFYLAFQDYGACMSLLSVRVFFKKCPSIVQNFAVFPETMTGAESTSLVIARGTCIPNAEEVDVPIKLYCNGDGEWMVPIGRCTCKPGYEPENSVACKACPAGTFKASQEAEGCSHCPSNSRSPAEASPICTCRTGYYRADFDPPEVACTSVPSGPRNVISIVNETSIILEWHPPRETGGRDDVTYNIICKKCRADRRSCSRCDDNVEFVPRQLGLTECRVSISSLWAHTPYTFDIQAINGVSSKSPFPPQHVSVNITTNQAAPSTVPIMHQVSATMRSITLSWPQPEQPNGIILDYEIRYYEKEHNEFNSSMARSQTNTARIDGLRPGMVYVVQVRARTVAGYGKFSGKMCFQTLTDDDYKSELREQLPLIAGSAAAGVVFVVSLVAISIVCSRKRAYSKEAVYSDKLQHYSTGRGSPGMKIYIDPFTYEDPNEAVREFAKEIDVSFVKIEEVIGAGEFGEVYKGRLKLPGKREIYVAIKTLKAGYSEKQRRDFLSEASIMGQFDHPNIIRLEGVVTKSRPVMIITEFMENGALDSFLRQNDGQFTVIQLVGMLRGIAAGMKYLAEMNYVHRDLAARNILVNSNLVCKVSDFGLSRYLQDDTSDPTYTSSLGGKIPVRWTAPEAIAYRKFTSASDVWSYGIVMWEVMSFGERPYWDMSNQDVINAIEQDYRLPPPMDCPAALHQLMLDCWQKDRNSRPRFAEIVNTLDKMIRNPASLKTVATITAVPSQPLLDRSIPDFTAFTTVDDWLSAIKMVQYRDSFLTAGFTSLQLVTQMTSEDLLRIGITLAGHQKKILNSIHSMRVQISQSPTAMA

First: LPPGTYPSDFA [UNC5B_Y511]
Second: YCGYSYDDIPD [TMEM230_Y112_R108C]
The phosphorylation enrichment of the first is lower: 0.482 for the first, 0.818 for the second.

First: EAMSDYKKQLR [SPATA18_Y229]
Second: TVEDHYYEGGI [TKT_Y563]
The phosphorylation enrichment of the first is lower: 0.418 for the first, 0.789 for the second.

First: TQRPHYKGGGG [TYROBP_Y112_Y111H]
Second: TNFRFYLRSLE [MTM1_Y71_L70F_YF]
The phosphorylation enrichment of the first is lower: 0.349 for the first, 0.66 for the second.

Going from RSIGEYDVLRA [PRKDC_Y2936_G2941A] to YEEDPYLVVNP [MCM6_Y810], the phosphorylation enrichment falls from 0.944 to 0.648.

Going from KLFYIYTPGTT [SLC27A4_Y245_S247P] to AHAGEYGADAL [HBA1_Y25_E28D], the phosphorylation enrichment falls from 0.666 to 0.401.

Going from SVVEPYEPPEV [TP53_Y220_V218E] to SFCFRYRCAAW [SUMF1_Y344_R349W_YF], the phosphorylation enrichment falls from 0.541 to 0.473.

Compared with AVEDQYFRVDC [FHL1_Y207_C209R_YF], TEQDPYNNIVC [MMUT_Y364_R369C] is lower in phosphorylation enrichment: 0.655 for the first, 0.555 for the second.

First: SPLEVYVDKSQ [FLNA_Y373_F370L]
Second: FGDTSYIPFRD [CDC14C_Y132_P131S]
The phosphorylation enrichment of the first is higher: 0.653 for the first, 0.424 for the second.

Each sequence was assayed against Jak2 (UniProt O60674) in the same assay as above.
Jak2, sequence (O60674 whole entry, looked up): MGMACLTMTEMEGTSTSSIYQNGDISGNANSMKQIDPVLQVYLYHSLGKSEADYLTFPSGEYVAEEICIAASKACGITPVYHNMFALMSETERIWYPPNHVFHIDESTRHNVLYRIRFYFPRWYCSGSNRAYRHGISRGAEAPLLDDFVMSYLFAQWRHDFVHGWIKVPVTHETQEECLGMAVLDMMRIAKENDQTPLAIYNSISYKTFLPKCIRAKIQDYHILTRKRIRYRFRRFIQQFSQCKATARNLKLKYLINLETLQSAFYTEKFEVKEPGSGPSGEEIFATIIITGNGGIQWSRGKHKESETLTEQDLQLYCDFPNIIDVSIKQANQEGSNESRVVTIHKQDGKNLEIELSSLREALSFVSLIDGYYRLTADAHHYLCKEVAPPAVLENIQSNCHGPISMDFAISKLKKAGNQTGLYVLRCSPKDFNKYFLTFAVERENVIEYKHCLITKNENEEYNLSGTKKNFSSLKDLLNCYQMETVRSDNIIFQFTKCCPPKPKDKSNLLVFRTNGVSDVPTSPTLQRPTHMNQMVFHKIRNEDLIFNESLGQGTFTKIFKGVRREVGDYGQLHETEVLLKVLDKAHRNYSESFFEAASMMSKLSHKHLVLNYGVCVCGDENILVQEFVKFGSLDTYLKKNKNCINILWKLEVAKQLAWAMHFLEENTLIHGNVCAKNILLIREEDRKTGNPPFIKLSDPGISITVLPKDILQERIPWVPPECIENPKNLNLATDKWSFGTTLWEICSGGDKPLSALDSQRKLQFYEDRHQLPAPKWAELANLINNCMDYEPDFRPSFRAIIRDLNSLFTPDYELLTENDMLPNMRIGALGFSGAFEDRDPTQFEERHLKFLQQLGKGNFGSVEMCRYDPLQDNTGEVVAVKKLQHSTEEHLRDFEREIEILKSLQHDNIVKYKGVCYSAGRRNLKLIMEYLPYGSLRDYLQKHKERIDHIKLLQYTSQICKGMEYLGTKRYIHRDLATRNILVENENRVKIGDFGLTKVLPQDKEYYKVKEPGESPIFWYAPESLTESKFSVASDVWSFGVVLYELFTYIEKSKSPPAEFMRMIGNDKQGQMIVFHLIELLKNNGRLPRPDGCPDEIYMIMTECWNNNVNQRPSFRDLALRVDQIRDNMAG

Compared with LPPGTYPSDFA [UNC5B_Y511], YCGYSYDDIPD [TMEM230_Y112_R108C] is higher in phosphorylation enrichment: 0.791 for the first, 1.36 for the second.

Going from EAMSDYKKQLR [SPATA18_Y229] to TVEDHYYEGGI [TKT_Y563], the phosphorylation enrichment rises from 0.563 to 1.06.

Compared with TQRPHYKGGGG [TYROBP_Y112_Y111H], TNFRFYLRSLE [MTM1_Y71_L70F_YF] is higher in phosphorylation enrichment: 0.676 for the first, 1.57 for the second.

Compared with RSIGEYDVLRA [PRKDC_Y2936_G2941A], YEEDPYLVVNP [MCM6_Y810] is higher in phosphorylation enrichment: 0.703 for the first, 1.37 for the second.

Going from KLFYIYTPGTT [SLC27A4_Y245_S247P] to AHAGEYGADAL [HBA1_Y25_E28D], the phosphorylation enrichment falls from 1.43 to 0.578.

First: SVVEPYEPPEV [TP53_Y220_V218E]
Second: SFCFRYRCAAW [SUMF1_Y344_R349W_YF]
The phosphorylation enrichment of the first is higher: 0.985 for the first, 0.638 for the second.

Compared with AVEDQYFRVDC [FHL1_Y207_C209R_YF], TEQDPYNNIVC [MMUT_Y364_R369C] is lower in phosphorylation enrichment: 1.6 for the first, 0.952 for the second.

Compared with SPLEVYVDKSQ [FLNA_Y373_F370L], FGDTSYIPFRD [CDC14C_Y132_P131S] is lower in phosphorylation enrichment: 1.14 for the first, 0.676 for the second.

Reference: the supplement of paper PMC10065799, “High-throughput profiling of sequence recognition by tyrosine kinases and SH2 domains using bacterial peptide display” (eLife, 2023)
